Earlier results on two substances are cited in PMC11743636.

The Kd is the free concentration of one partner at which half of the binding sites on the other are occupied at equilibrium, for simple one-to-one binding.

In one data set the target is sIL-6R (Homo sapiens) (UniProt P08887).
Another data set deals with sgp130 (Homo sapiens) (UniProt P40189).
Sequence of sgp130 (Homo sapiens) (P40189 23-619): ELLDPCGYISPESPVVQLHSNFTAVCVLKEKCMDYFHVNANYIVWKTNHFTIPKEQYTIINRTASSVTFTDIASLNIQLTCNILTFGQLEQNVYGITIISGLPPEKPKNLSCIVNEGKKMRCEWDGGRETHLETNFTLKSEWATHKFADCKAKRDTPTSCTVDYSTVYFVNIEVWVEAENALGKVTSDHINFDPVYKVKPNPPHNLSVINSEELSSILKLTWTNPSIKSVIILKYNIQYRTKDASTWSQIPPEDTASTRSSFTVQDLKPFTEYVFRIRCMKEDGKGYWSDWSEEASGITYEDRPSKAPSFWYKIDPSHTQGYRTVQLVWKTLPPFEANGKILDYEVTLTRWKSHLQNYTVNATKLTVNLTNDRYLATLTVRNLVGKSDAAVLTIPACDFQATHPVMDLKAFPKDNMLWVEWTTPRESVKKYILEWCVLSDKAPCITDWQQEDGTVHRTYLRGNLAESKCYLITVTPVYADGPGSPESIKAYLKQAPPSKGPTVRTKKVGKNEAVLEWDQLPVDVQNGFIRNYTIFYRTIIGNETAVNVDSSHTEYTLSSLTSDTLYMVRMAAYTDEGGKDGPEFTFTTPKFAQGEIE

Sequence of sIL-6R (Homo sapiens) (P08887 20-355): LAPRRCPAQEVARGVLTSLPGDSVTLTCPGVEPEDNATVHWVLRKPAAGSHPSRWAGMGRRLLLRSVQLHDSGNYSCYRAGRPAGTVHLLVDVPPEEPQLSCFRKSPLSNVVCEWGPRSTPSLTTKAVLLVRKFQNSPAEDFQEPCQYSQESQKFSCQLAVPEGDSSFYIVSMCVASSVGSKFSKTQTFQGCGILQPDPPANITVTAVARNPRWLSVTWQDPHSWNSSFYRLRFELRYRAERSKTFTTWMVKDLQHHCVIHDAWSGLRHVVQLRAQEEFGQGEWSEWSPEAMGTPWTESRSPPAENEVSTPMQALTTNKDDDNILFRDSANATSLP

For IL-6 (from UniProt P05231), the Kd in the data set with sIL-6R (Homo sapiens) was 0.5 nM.

With “IL-6/sIL-6R complex (from UniProt P05231)”, the Kd in the data set with sgp130 (Homo sapiens) was 0.05 nM.
